These results are taken from IntAct's records for PubMed 29039417.

B1: BBSome complex member BBS4 (Homo sapiens), Q96RK4 (parent)
chain: MAEERVATRTQFPVSTESQKPRQKKAPEFPILEKQNWLIHLHYIRKDYEACKAVIKEQLQETQGLCEYAIYVQALIFRLEGNIQESLELFQTCAVLSPQSADNLKQVARSLFLLGKHKAAIEVYNEAAKLNQKDWEISHNLGVCYIYLKQFNKAQDQLHNALNLNRHDLTYIMLGKIHLLEGDLDKAIEVYKKAVEFSPENTELLTTLGLLYLQLGIYQKAFEHLGNALTYDPTNYKAILAAGSMMQTHGDFDVALTKYRVVACAVPESPPLWNNIGMCFFGKKKYVAAISCLKRANYLAPFDWKILYNLGLVHLTMQQYASAFHFLSAAINFQPKMGELYMLLAVALTNLEDIENAKRAYAEAVHLDKCNPLVNLNYAVLLYNQGEKKNALAQYQEMEKKVSLLKDNSSLEFDSEMVEMAQKLGAALQVGEALVWTKPVKDPKSKHQTTSTSKPASFQQPLGSNQALGQAMSSAAAYRTLPSGAGGTSQFTKPPSLPLEPEPAVESSPTETSEQIREK
partner: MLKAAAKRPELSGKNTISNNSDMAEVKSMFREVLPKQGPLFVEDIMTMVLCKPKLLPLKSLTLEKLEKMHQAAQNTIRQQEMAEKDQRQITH

In the assay the parent is B1. Conditions: with bbip1_human BBIP1, A8MTZ0.
A321K: the “effect of a mutation on the interaction” value is listed as “with no effect”.

Consider A321E, for which the “effect of a mutation on the interaction” value is recorded as “with no effect”.

As for F324A, the “effect of a mutation on the interaction” value was “with no effect”.

As for F324K, the “effect of a mutation on the interaction” value is given as “with no effect”.

Take F324E: the “effect of a mutation on the interaction” value is “with no effect”.

In the case of F324P, the “effect of a mutation on the interaction” value is “disrupting interaction strength”.

Regarding N309E, the “effect of a mutation on the interaction” value is “with no effect”.

As for N309K, the “effect of a mutation on the interaction” value is given as “with no effect”.

For N309D, the “effect of a mutation on the interaction” value is given as “disrupting interaction strength”.

For N309A, the “effect of a mutation on the interaction” value is given as “with no effect”.

Regarding D303K, the “effect of a mutation on the interaction” value is reported as “with no effect”.

Turning to D303E, the “effect of a mutation on the interaction” value was “with no effect”.

Regarding D303A, the “effect of a mutation on the interaction” value is reported as “with no effect”.

For H325A, the “effect of a mutation on the interaction” value is “with no effect”.

With H325K, the “effect of a mutation on the interaction” value is “with no effect”.

For the variant H325E, the “effect of a mutation on the interaction” value is on record as “with no effect”.

On to A323V, for which the “effect of a mutation on the interaction” value is “disrupting interaction strength”.

For A323T, the “effect of a mutation on the interaction” value is “disrupting interaction strength”.

A323E: the “effect of a mutation on the interaction” value is “with no effect”.

For A323K, the “effect of a mutation on the interaction” value is reported as “with no effect”.

Consider G311A, for which the “effect of a mutation on the interaction” value is on record as “with no effect”.

For G311D, the “effect of a mutation on the interaction” value is listed as “disrupting interaction strength”.

G311K: the “effect of a mutation on the interaction” value is recorded as “with no effect”.

As to G311E, the “effect of a mutation on the interaction” value is listed as “with no effect”.

As to K294E, the “effect of a mutation on the interaction” value is listed as “with no effect”.

With K294A, the “effect of a mutation on the interaction” value was “with no effect”.

As to A330V, the “effect of a mutation on the interaction” value is recorded as “disrupting interaction strength”.

For the variant A330K, the “effect of a mutation on the interaction” value is recorded as “with no effect”.

As for A330E, the “effect of a mutation on the interaction” value is reported as “with no effect”.

For the variant A330F, the “effect of a mutation on the interaction” value is recorded as “disrupting interaction strength”.

Regarding L293A, the “effect of a mutation on the interaction” value is reported as “with no effect”.

Take L293K: the “effect of a mutation on the interaction” value is given as “with no effect”.

In the case of L293E, the “effect of a mutation on the interaction” value was “with no effect”.

With P301S, the “effect of a mutation on the interaction” value was “disrupting interaction strength”.

P301K: the “effect of a mutation on the interaction” value is “with no effect”.

P301A: the “effect of a mutation on the interaction” value was “with no effect”.

Consider P301L, for which the “effect of a mutation on the interaction” value was “disrupting interaction strength”.

As to P301E, the “effect of a mutation on the interaction” value is listed as “with no effect”.

On to F326E, for which the “effect of a mutation on the interaction” value is “with no effect”.

With F326L, the “effect of a mutation on the interaction” value is “disrupting interaction strength”.

Regarding F326S, the “effect of a mutation on the interaction” value is recorded as “disrupting interaction strength”.

As to F326A, the “effect of a mutation on the interaction” value is recorded as “with no effect”.

With F326K, the “effect of a mutation on the interaction” value was “with no effect”.

With Q334D, the “effect of a mutation on the interaction” value was “disrupting interaction strength”.

For the variant Q334A, the “effect of a mutation on the interaction” value is “with no effect”.

As for Q334E, the “effect of a mutation on the interaction” value is given as “with no effect”.

For Q334K, the “effect of a mutation on the interaction” value was “with no effect”.

For F302K, the “effect of a mutation on the interaction” value is listed as “with no effect”.

For the variant F302E, the “effect of a mutation on the interaction” value is recorded as “with no effect”.

Consider F302A, for which the “effect of a mutation on the interaction” value is listed as “with no effect”.

As for G338R, the “effect of a mutation on the interaction” value is on record as “disrupting interaction strength”.

G338A: the “effect of a mutation on the interaction” value is “with no effect”.

In the case of G338E, the “effect of a mutation on the interaction” value is “disrupting interaction strength”.

As to G338K, the “effect of a mutation on the interaction” value is reported as “with no effect”.

Y320E: the “effect of a mutation on the interaction” value is reported as “with no effect”.

Y320A: the “effect of a mutation on the interaction” value is “with no effect”.

Consider Y320K, for which the “effect of a mutation on the interaction” value is recorded as “with no effect”.

Regarding Y320C, the “effect of a mutation on the interaction” value was “disrupting interaction strength”.

N332A: the “effect of a mutation on the interaction” value was “with no effect”.

For the variant N332F, the “effect of a mutation on the interaction” value is reported as “disrupting interaction strength”.

Turning to N332K, the “effect of a mutation on the interaction” value is on record as “with no effect”.

Consider N332I, for which the “effect of a mutation on the interaction” value is given as “disrupting interaction strength”.

Regarding N332Y, the “effect of a mutation on the interaction” value is given as “disrupting interaction strength”.

With N332E, the “effect of a mutation on the interaction” value is given as “with no effect”.

In the case of L312K, the “effect of a mutation on the interaction” value is reported as “with no effect”.

As to L312T, the “effect of a mutation on the interaction” value is recorded as “disrupting interaction strength”.

With L312A, the “effect of a mutation on the interaction” value is listed as “with no effect”.

Take L312P: the “effect of a mutation on the interaction” value was “disrupting interaction strength”.

L312E: the “effect of a mutation on the interaction” value is listed as “with no effect”.

In the case of L312H, the “effect of a mutation on the interaction” value is “disrupting interaction strength”.

For the variant K336E, the “effect of a mutation on the interaction” value is “with no effect”.

With K336A, the “effect of a mutation on the interaction” value is reported as “with no effect”.

As for Y308A, the “effect of a mutation on the interaction” value is “with no effect”.

With Y308E, the “effect of a mutation on the interaction” value was “with no effect”.

For the variant Y308K, the “effect of a mutation on the interaction” value is listed as “with no effect”.

As for E339A, the “effect of a mutation on the interaction” value is listed as “with no effect”.

As for E339K, the “effect of a mutation on the interaction” value was “with no effect”.

Regarding P335K, the “effect of a mutation on the interaction” value was “with no effect”.

In the case of P335T, the “effect of a mutation on the interaction” value is on record as “disrupting interaction strength”.

As for P335E, the “effect of a mutation on the interaction” value is listed as “with no effect”.

Turning to P335A, the “effect of a mutation on the interaction” value is reported as “with no effect”.

In the case of L315A, the “effect of a mutation on the interaction” value was “with no effect”.

Regarding L315K, the “effect of a mutation on the interaction” value is reported as “with no effect”.

On to L315E, for which the “effect of a mutation on the interaction” value was “with no effect”.
